In the supplement of paper PMC10567573:

B1: BTBD1 (parent)
chain: YGSIHGPTDYQVNIQIIEYEKKQT
B2: TEKT4 (parent)
chain: LREKLLEAEQSLRNLEDIHMSLEK

Variants of: B1
Assay: protein stability index of a GFP-peptide fusion (GPS, HEK-293T) (PSI 1-6); higher = more stable
Settings: c terminus: a fixed tail appended
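Further: lentivirally expressed fusions sorted by FACS into six bins by GFP to DsRed ratio, PSI derived from sequencing read proportions per bin multiplied by bin number.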

Protein stability index: each site, then its substitutions
K22: W 2.5 | Y 2.47
Q23: A 2.33 | C 1.8 | D 2.46 | E 2.72 | F 1.61 | G 2.76 | H 2.31 | I 1.81 | K 2.74 | L 1.6 | M 2.18 | N 2.88 | P 2.28 | R 2.51 | S 2.43 | T 2.13 | V 2.12 | W 2.56 | Y 1.93
T24: A 3.1 | C 2.16 | D 3.18 | E 3.08 | F 1.84 | G 2.57 | H 2.9 | I 2.08 | K 3.05 | L 2.03 | M 2.36 | N 2.9 | P 2.3 | Q 3.18 | R 2.69 | S 2.98 | V 2.43 | W 2.23 | Y 2.21

Variants of: B2
Assay: as above
Settings: c terminus: a fixed tail appended

Protein stability index of substitutions, site by site:
L1: A 3.67 | C 3.07 | D 5.15 | E 5.12 | F 1.74 | G 4.38 | H 3.92 | I 1.82 | K 4.27 | M 3.12 | N 4.65 | P 4.12 | Q 4.67 | R 3.52 | S 4.82 | T 4.24 | V 1.98 | W 1.92 | Y 2.61
R2: C 1.48 | D 2.72 | E 2.43 | F 1.16 | G 2.34 | H 2.02 | I 2.41 | K 3.61 | L 1.93 | M 1.89 | N 1.86 | P 3.11 | Q 1.9 | S 2.33 | T 2.83 | V 1.7 | Y 2.05
E3: A 2.29 | C 1.96 | D 2.02 | F 2.46 | G 1.96 | H 2.71 | K 2.1 | L 2.58 | M 2.88 | N 2.27 | P 2.24 | Q 2.82 | R 2.69 | S 2.47 | T 1.63 | V 2.01 | W 1.81 | Y 2.15
K4: A 2.21 | C 2.54 | D 4.01 | E 3.17 | F 1.43 | G 3.45 | H 3.01 | I 2.36 | M 1.76 | N 3.27 | P 3.54 | Q 2.17 | R 2.88 | S 2.63 | T 3.9 | V 2.51 | W 1.74 | Y 2.33
L5: A 4.49 | C 2.44 | D 5.1 | E 5.05 | F 3.27 | G 4.83 | H 4.08 | I 2.72 | K 4.93 | M 3.2 | N 5.13 | P 4.75 | Q 5.21 | R 4.49 | S 4.68 | T 4.67 | V 2.66 | W 4.04 | Y 3.86
L6: A 3.11 | C 2.92 | D 3.54 | E 2.84 | F 2.34 | G 2.65 | H 3.27 | I 1.86 | K 3.31 | M 2.83 | N 2.89 | P 5.19 | Q 2.91 | R 2.86 | S 4.23 | T 2.94 | V 2.65 | W 2.23 | Y 2.61
E7: A 2.46 | C 2.17 | D 2.38 | F 2.5 | G 3.75 | H 3.6 | I 2.06 | K 2.51 | L 1.75 | M 2.38 | N 2.39 | P 4.17 | Q 2.35 | S 2.42 | T 2.93 | V 2.56 | W 1.75 | Y 2.08
A8: C 1.64 | D 2.86 | E 3.99 | F 2.52 | G 2.2 | H 3.67 | I 1.48 | K 4.01 | L 1.63 | N 4.59 | P 4.59 | Q 2.72 | R 3.92 | S 3 | T 2.61 | V 2.72 | W 1.8 | Y 3.58
E9: A 2.38 | C 1.85 | D 3.4 | F 1.37 | G 2.89 | H 2.58 | I 1.75 | K 3.17 | L 2.77 | N 3.15 | P 3.52 | Q 1.98 | R 3.25 | S 2.61 | T 2.44 | V 2.05 | W 2.06 | Y 2.06
Q10: A 3.49 | C 3.01 | D 1.92 | F 2.89 | G 2.71 | H 2.23 | I 1.34 | K 2.37 | L 3.22 | N 2.76 | P 4.65 | R 2.69 | S 2.79 | T 2.77 | V 2.08 | W 1.98 | Y 1.85
S11: A 1.5 | D 2.57 | F 1.96 | G 2.28 | H 2.75 | I 4.94 | K 2.08 | L 1.83 | M 1.05 | P 4.21 | Q 2.33 | T 2.55 | V 1.47 | W 1.48 | Y 1.83
L12: A 3.84 | D 5.05 | E 4.97 | F 1.69 | G 3.89 | H 4.44 | K 3.98 | M 2.97 | N 4.57 | P 4.6 | R 3.02 | S 3.62 | T 3.17 | V 3.3 | W 1.79 | Y 2.03
R13: C 2.21 | D 3.69 | F 2.11 | G 2.22 | H 3.38 | I 2.6 | K 2.22 | L 2.18 | M 2.52 | P 2.45 | Q 3.43 | S 1.89 | T 2.61 | V 2.96 | W 2.09 | Y 2.11
N14: C 2.26 | D 2.27 | E 3.99 | G 2.71 | H 1.77 | K 2.27 | L 1.64 | P 2.04 | R 2.78 | S 2.07 | V 2.56 | W 1.35
L15: A 3.2 | C 2.81 | D 1.55 | E 2.71 | F 3.29 | G 2 | H 3.22 | I 2.64 | K 2.71 | M 2.56 | N 2.65 | Q 2.64 | R 2.38 | S 3.36 | T 2.47 | W 1.93 | Y 2.29
E16: A 1.41 | C 1.33 | D 2.35 | G 2.37 | H 1.59 | I 2.7 | K 2.3 | L 1.47 | M 1.93 | N 1.94 | P 2.71 | Q 2.15 | R 2.12 | S 2.25 | T 2.21 | V 2.06 | W 1.18
D17: A 2.31 | C 2.46 | F 1.79 | G 2.81 | H 2.29 | I 1.58 | K 2.32 | L 1.89 | M 2.42 | N 1.62 | P 2.7 | Q 2.23 | S 2.33 | T 2.27 | W 1.76 | Y 1.45
I18: A 2.81 | C 2.63 | D 3.33 | E 1.69
